In article PMC11429640:

Target: high-stability mutant of the MMP-9 catalytic domain (MMP9CAT*) lacking the fibronectin-like domain (human) (UniProt P14780)
Experiment: enzyme activity inhibition assay (fluorogenic substrate, fit to the Morrison equation); apparent Ki (Ki^app); varying concentrations of N-TIMP2 incubated with 0.26 nM MMP-9CAT* for 60 min at 37 °C in 50 mM Tris-HCl, 0.15 M NaCl, 10 mM CaCl2, 0.02% Brij-35 pH 7.5; then 7.5 µM fluorogenic substrate; at least three assays for each protein

Chain of UniProt P14780 (P14780 other isoform, or with tags, fused parts or gaps mutant): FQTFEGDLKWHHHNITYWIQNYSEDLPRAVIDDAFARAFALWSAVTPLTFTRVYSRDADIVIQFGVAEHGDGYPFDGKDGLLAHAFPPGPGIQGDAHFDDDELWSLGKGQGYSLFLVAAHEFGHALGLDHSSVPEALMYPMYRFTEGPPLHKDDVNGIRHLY

Substance: WT N-TIMP2 containing internal FLAG-tag, c-myc-tag, and His-tag (domain or fragment)
- Ki: 0.32 nM
